Laboratory results from patent US20260049138A1 (Chugai, published 2026).
Where a chain is given by its changes, count along the chain named. Each block holds one binder with its values, some of them ahead of it.

Tests used:
[1] = target: T1, human CD154 (human, UniProt P29965 113-261, limits assumed, biotin-labeled); assay: ECL competition, CD3ε[+]: CD3ε homodimer added as competitor [1]
T1 construct: also called biotin-labeled human CD154; biotinylated human CD154
T1 sequence (looked up): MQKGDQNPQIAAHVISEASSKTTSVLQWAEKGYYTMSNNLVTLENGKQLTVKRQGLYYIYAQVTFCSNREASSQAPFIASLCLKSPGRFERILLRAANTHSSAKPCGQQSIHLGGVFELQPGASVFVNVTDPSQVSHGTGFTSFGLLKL
Description: Next, each obtained IgG was evaluated for its binding to CD3 and human CD154 at the same time by the competition method (electrochemiluminescence method (ECL method)).
A TBST solution containing 0.5% BSA (referred to as a blocking solution; the TBST solution was TBS (manufactured by Takara Bio Inc.) supplemented with 0.1% Tween 20) was added at 150 μL/well to streptavidin plate (MSD K.K.), and the plate was incubated at room temperature for 1 hour or longer. After removal of the blocking solution, each well was washed three times with 250 μL of a TBST solution. The antibody-antigen complex solution was added thereto at 50 μL/well, and the plate was incubated at room temperature for 1 hour so that the biotinylated antigen-antibody-detection sulfo-tag antibody complex solution bound via the biotinylated antigen to the streptavidin plate. After removal of the antibody-antigen complex solution, each well was washed three times with a TBST solution, and a solution of 4×READ buffer (MSD K.K.) diluted 2-fold with water was added thereto at 150 μL/well, followed by the detection of the luminescence signal of the sulfo-tag using Sector Imager 2400 (MSD K.K.).

[2] = target: T2, CD3ε homodimer protein (human, UniProt P07766 23-126, limits assumed, sulfo-tag or biotin label in the ECL assays; amine-coupled to the chip in SPR); assay: SPR Biacore T200; CD3ε homodimer on CM4 chip;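 note: Single-residue variant antibodies injected as analyte over CD3ε homodimer immobilized by amine coupling, run at 25 °C in HBS-EP+ buffer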
T2 construct: also called human CD3ε homodimer protein; CD3 (CD3ε)
T2 sequence (P07766 23-126 limits assumed): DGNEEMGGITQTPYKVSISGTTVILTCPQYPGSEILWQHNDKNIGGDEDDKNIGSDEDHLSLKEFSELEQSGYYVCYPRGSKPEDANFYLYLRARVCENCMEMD

relative ECL reaction (to no antigen coating) [1]: 1
B1: 154R4B07#1 one-arm antibody (antibody, human IgG1, kappa, L234A L235A, N297A)
heavy: QVQLVESGGGLVQPGRSLRLSCAASGFTFSNAWMHWVRQAPGKGLEWVAQIKDRGNNYAAYYAESVKGRFTISRDDSKNSIYLQMNSLKTEDTAVYYCRYVHYGSYFFASFYFGVDIWGQGTTVTVSSASTKGPSVFPLAPSSKSTSGGTAALGCLVKDYFPEPVTVSWNSGALTSGVHTFPAVLQSSGLYSLSSVVTVPSSSLGTQTYICNVNHKPSNTKVDKKVEPKSCDKTHTCPPCPAPEAAGGPSVFLFPPKPKDTLMISRTPEVTCVVVDVSHEDPEVKFNWYVDGVEVHNAKTKPREEQYASTYRVVSVLTVLHQDWLNGKEYKCKVSNKALPAPIEKTISKAKGQPREPQVYTLPPSRCELTKNQVSLSCAVKGFYPSDIAVEWESNGQPENNYKTTPPVLDSDGSFFLVSKLTVDKSRWQQGNVFSCSVMHEALHNHYTQKSLSLSPDYKDDDDK
chain: EPKSSDKTHTCPPCPAPELLGGPSVFLFPPKPKDTLMISRTPEVTCVVVDVSHEDPEVKFNWYVDGVEVHNAKTKPREEQYNSTYRVVSVLTVLHQDWLNGKEYKCKVSNKALPAPIEKTISKAKGQPREPQVCTLPPSRDELTKNQVSLWCLVKGFYPSDIAVEWESNGQPENNYKTTPPVLDSDGSFFLYSKLTVDKSRWQQGNVFSCSVMHEALHNRYTQKSLSLSP
light: DIVMTQSPLSLPVTPGEPASISCRSSQSLVHSNRNTYLHWYQQKPGQAPRLLIYKVSNRFSGVPDRFSGSGSGTDFTLKISRVEAEDVGVYYCGQGTQVPYTFGQGTKLEIKRTVAAPSVFIFPPSDEQLKSGTASVVCLLNNFYPREAKVQWKVDNALQSGNSQESVTEQDSKDSTYSLSSTLTLSKADYEKHKVYACEVTHQGLSSPVTKSFNRGEC
notes: As m48

relative ECL reaction (to no antigen coating) [1]: 19
B2: 154R3A01#3 one-arm antibody (antibody, human IgG1, kappa, L234A L235A, N297A)
heavy: QVQLVESGGGLVQPGRSLRLSCAASGFAFSNAWMHWVRQAPGKGLEWVAQIKDRVNQYANYYAESVKGRFTISRDDSKNSIYLQMNSLKTEDTAVYYCRYVHYGLTGYFSGQGGVDAWGQGTTVTVSSASTKGPSVFPLAPSSKSTSGGTAALGCLVKDYFPEPVTVSWNSGALTSGVHTFPAVLQSSGLYSLSSVVTVPSSSLGTQTYICNVNHKPSNTKVDKKVEPKSCDKTHTCPPCPAPEAAGGPSVFLFPPKPKDTLMISRTPEVTCVVVDVSHEDPEVKFNWYVDGVEVHNAKTKPREEQYASTYRVVSVLTVLHQDWLNGKEYKCKVSNKALPAPIEKTISKAKGQPREPQVYTLPPSRCELTKNQVSLSCAVKGFYPSDIAVEWESNGQPENNYKTTPPVLDSDGSFFLVSKLTVDKSRWQQGNVFSCSVMHEALHNHYTQKSLSLSPDYKDDDDK
chain: B1 chain
light: B1 light
notes: As m48

relative ECL reaction (to no antigen coating) [1]: 18
B3: 154R3B01#1 one-arm antibody (antibody, human IgG1, kappa, L234A L235A, N297A)
heavy: QVQLVESGGGLVQPGRSLRLSCAASGFTFSSAWMHWVRQAPGKGLEWVAQIKDKQNQYNAYYAESVKGRFTISRDDSKNSIYLQMNSLKTEDTAVYYCRYVHYATSDGFLPYFGVDAWGQGTTVTVSSASTKGPSVFPLAPSSKSTSGGTAALGCLVKDYFPEPVTVSWNSGALTSGVHTFPAVLQSSGLYSLSSVVTVPSSSLGTQTYICNVNHKPSNTKVDKKVEPKSCDKTHTCPPCPAPEAAGGPSVFLFPPKPKDTLMISRTPEVTCVVVDVSHEDPEVKFNWYVDGVEVHNAKTKPREEQYASTYRVVSVLTVLHQDWLNGKEYKCKVSNKALPAPIEKTISKAKGQPREPQVYTLPPSRCELTKNQVSLSCAVKGFYPSDIAVEWESNGQPENNYKTTPPVLDSDGSFFLVSKLTVDKSRWQQGNVFSCSVMHEALHNHYTQKSLSLSPDYKDDDDK
chain: B1 chain
light: B1 light
notes: As m48

relative ECL reaction (to no antigen coating) [1]: 4
B4: 154R3A01#2 one-arm antibody (antibody, human IgG1, kappa, L234A L235A, N297A)
heavy: B2 heavy with A28T, F70L
chain: B1 chain
light: B1 light
notes: As m48

relative ECL reaction (to no antigen coating) [1]: 4
B5: 154R3A01#4 one-arm antibody (antibody, human IgG1, kappa, L234A L235A, N297A)
heavy: B2 heavy with A28T, S65C
chain: B1 chain
light: B1 light
notes: As m48

relative ECL reaction (to no antigen coating) [1]: 21
B6: 154R3A01#1 one-arm antibody (antibody, human IgG1, kappa, L234A L235A, N297A)
heavy: B2 heavy with A28T
chain: B1 chain
light: B1 light

relative ECL reaction (to no antigen coating) [1]: 1
B7: 154R4F08#1 one-arm antibody (antibody, human IgG1, kappa, L234A L235A, N297A)
heavy: B1 heavy with R16H
chain: B1 chain
light: B1 light
notes: As m48

ratio of amounts bound Z=Y/X (altered form / CE115HA000) [2]: 0.64
B8: CE115HA000 Y100aS one-arm antibody (antibody, human IgG1, kappa, L234A L235A, N297A, name in Kabat numbering)
heavy: QVQLVESGGGVVQPGRSLRLSCAASGFTFSNAWMHWVRQAPGKGLEWVAQIKAKSNNYATYYAESVKGRFTISRDDSKNSLYLQMNSLKTEDTAVYYCRYVHYGAYSGVDAWGQGTTVTVSSASTKGPSVFPLAPSSKSTSGGTAALGCLVKDYFPEPVTVSWNSGALTSGVHTFPAVLQSSGLYSLSSVVTVPSSSLGTQTYICNVNHKPSNTKVDKKVEPKSCDKTHTCPPCPAPEAAGGPSVFLFPPKPKDTLMISRTPEVTCVVVDVSHEDPEVKFNWYVDGVEVHNAKTKPREEQYASTYRVVSVLTVLHQDWLNGKEYKCKVSNKALPAPIEKTISKAKGQPREPQVYTLPPSRCELTKNQVSLSCAVKGFYPSDIAVEWESNGQPENNYKTTPPVLDSDGSFFLVSKLTVDKSRWQQGNVFSCSVMHEALHNHYTQKSLSLSPDYKDDDDK
chain: B1 chain
light: B1 light

ratio of amounts bound Z=Y/X (altered form / CE115HA000) [2]: 0.48
B9: CE115HA000 Y100aL one-arm antibody (antibody, human IgG1, kappa, L234A L235A, N297A, name in Kabat numbering)
heavy: B8 heavy with S107L
chain: B1 chain
light: B1 light

ratio of amounts bound Z=Y/X (altered form / CE115HA000) [2]: 0.56
B10: CE115HA000 Y100aQ one-arm antibody (antibody, human IgG1, kappa, L234A L235A, N297A, name in Kabat numbering)
heavy: B8 heavy with S107Q
chain: B1 chain
light: B1 light
